Test results published in patent publication US20120316071A1 (published 2012).
Each block holds one binder with its values, some of them ahead of it.

Assays:
[1] = molecular target: T1, Recombinant Human DLL4 (R&D Systems Cat#1506-D4/CF) (human, UniProt Q9NR61 27-524); assay: ECL (Meso Scale Discovery) multispot binding assay, DLL4 immobilised, Fab at 100 nM
T1 construct: Bought recombinant protein; also called delta-like protein 4; Delta-like 4

Recombinant Human DLL4 [2] = molecular target: T2, Recombinant Human DLL4 (human, UniProt Q9NR61 27-524); assay: ECL (MSD) 96-well plate assay; plate coated with 15 ug/mL DLL4; 0.004 uM Fab
T2 construct: Bought recombinant protein (R&D Systems Cat#1506-D4/CF); also called delta-like protein 4; Delta-like 4

Recombinant Human DLL4 [3] = molecular target: T2, Recombinant Human DLL4; assay: ECL (MSD) 96-well plate assay; plate coated with 30 ug/mL DLL4; 0.02 uM Fab
Recombinant Human DLL4 [4] = molecular target: T3, Recombinant Human DLL4 (human, UniProt Q9NR61 27-524); assay: ECL 96-well plate binding assay, DLL4 immobilised, 10 nM Fab
T3 construct: Bought recombinant protein (R&D Systems Cat#1506-D4/CF), coated on the plate; also called delta-like protein 4; Delta-like 4

Recombinant Human DLL4 [5] = molecular target: T3, Recombinant Human DLL4; assay: ELISA, DLL4 coated, 100 nM Fab

ECL signal [1]: 10300
B1: Fab VH5-51_IGHD5-18*01>3_IGHJ4*01 G100K/G104T (H:KT) & V3-4_IGLJ1*01 S30A (Fab, V domains shown)
VH: EVQLVQSGAEVKKPGESLKISCKGSGYSFTSYWIGWVRQMPGKGLEWMGIIYPGDSDTRYSPSFQGQVTISADKSISTAYLQWSSLKASDTAMYYCARRKYSYTYDYFDYWGQGTLVTVSS
VL: QTVVTQEPSFSVSPGGTVTLTCGLSSGSVATSYYPSWYQQTPGQAPRTLIYSTNTRSSGVPDRFSGSILGNKAALTITGAQADDESDYYCVLYMGSGISYVFGTGTKVTVL
notes: Fab expressed in E. coli; Plasmid A adds CH1 with His6 and Flag tags to the heavy chain; Plasmid E adds lambda CL to the light chain; also called G100K/G104T & S30A

ECL signal [1]: 9690
B2: Fab VH5-51_IGHD5-18*01>3_IGHJ4*01 G100K/G104T (H:KT) & V3-4_IGLJ1*01 S36A (Fab, V domains shown)
VH: EVQLVQSGAEVKKPGESLKISCKGSGYSFTSYWIGWVRQMPGKGLEWMGIIYPGDSDTRYSPSFQGQVTISADKSISTAYLQWSSLKASDTAMYYCARRKYSYTYDYFDYWGQGTLVTVSS
VL: QTVVTQEPSFSVSPGGTVTLTCGLSSGSVSTSYYPAWYQQTPGQAPRTLIYSTNTRSSGVPDRFSGSILGNKAALTITGAQADDESDYYCVLYMGSGISYVFGTGTKVTVL
notes: Fab expressed in E. coli; Plasmid A adds CH1 with His6 and Flag tags to the heavy chain; Plasmid E adds lambda CL to the light chain; also called G100K/G104T & S36A

ECL signal [1]: 13500
B3: Fab VH5-51_IGHD5-18*01>3_IGHJ4*01 G100K/G104T (H:KT) & V3-4_IGLJ1*01 T31A (Fab, V domains shown)
VH: EVQLVQSGAEVKKPGESLKISCKGSGYSFTSYWIGWVRQMPGKGLEWMGIIYPGDSDTRYSPSFQGQVTISADKSISTAYLQWSSLKASDTAMYYCARRKYSYTYDYFDYWGQGTLVTVSS
VL: QTVVTQEPSFSVSPGGTVTLTCGLSSGSVSASYYPSWYQQTPGQAPRTLIYSTNTRSSGVPDRFSGSILGNKAALTITGAQADDESDYYCVLYMGSGISYVFGTGTKVTVL
notes: Fab expressed in E. coli; Plasmid A adds CH1 with His6 and Flag tags to the heavy chain; Plasmid E adds lambda CL to the light chain; also called G100K/G104T & T31A

ECL signal [1]: 2200
B4: Fab VH5-51_IGHD5-18*01>3_IGHJ4*01 G100K/G104T (H:KT) & V3-4_IGLJ1*01 Y34A (Fab, V domains shown)
VH: EVQLVQSGAEVKKPGESLKISCKGSGYSFTSYWIGWVRQMPGKGLEWMGIIYPGDSDTRYSPSFQGQVTISADKSISTAYLQWSSLKASDTAMYYCARRKYSYTYDYFDYWGQGTLVTVSS
VL: QTVVTQEPSFSVSPGGTVTLTCGLSSGSVSTSYAPSWYQQTPGQAPRTLIYSTNTRSSGVPDRFSGSILGNKAALTITGAQADDESDYYCVLYMGSGISYVFGTGTKVTVL
notes: Fab expressed in E. coli; Plasmid A adds CH1 with His6 and Flag tags to the heavy chain; Plasmid E adds lambda CL to the light chain; also called G100K/G104T & Y34A

ECL signal [1]: 9320
B5: Fab VH5-51_IGHD5-18*01>3_IGHJ4*01 G100K/G104T (H:KT) & V3-4_IGLJ1*01 V29A (Fab, V domains shown)
VH: EVQLVQSGAEVKKPGESLKISCKGSGYSFTSYWIGWVRQMPGKGLEWMGIIYPGDSDTRYSPSFQGQVTISADKSISTAYLQWSSLKASDTAMYYCARRKYSYTYDYFDYWGQGTLVTVSS
VL: QTVVTQEPSFSVSPGGTVTLTCGLSSGSASTSYYPSWYQQTPGQAPRTLIYSTNTRSSGVPDRFSGSILGNKAALTITGAQADDESDYYCVLYMGSGISYVFGTGTKVTVL
notes: Fab expressed in E. coli; Plasmid A adds CH1 with His6 and Flag tags to the heavy chain; Plasmid E adds lambda CL to the light chain; also called G100K/G104T & V29A

ECL signal [1]: 7700
B6: Fab VH5-51_IGHD5-18*01>3_IGHJ4*01 G100K/G104T (H:KT) & V3-4_IGLJ1*01 Y33A (Fab, V domains shown)
VH: EVQLVQSGAEVKKPGESLKISCKGSGYSFTSYWIGWVRQMPGKGLEWMGIIYPGDSDTRYSPSFQGQVTISADKSISTAYLQWSSLKASDTAMYYCARRKYSYTYDYFDYWGQGTLVTVSS
VL: QTVVTQEPSFSVSPGGTVTLTCGLSSGSVSTSAYPSWYQQTPGQAPRTLIYSTNTRSSGVPDRFSGSILGNKAALTITGAQADDESDYYCVLYMGSGISYVFGTGTKVTVL
notes: Fab expressed in E. coli; Plasmid A adds CH1 with His6 and Flag tags to the heavy chain; Plasmid E adds lambda CL to the light chain; also called G100K/G104T & Y33A

ECL signal [1]: 10400
B7: Fab VH5-51_IGHD5-18*01>3_IGHJ4*01 G100K/G104T (H:KT) & V3-4_IGLJ1*01 S32A (Fab, V domains shown)
VH: EVQLVQSGAEVKKPGESLKISCKGSGYSFTSYWIGWVRQMPGKGLEWMGIIYPGDSDTRYSPSFQGQVTISADKSISTAYLQWSSLKASDTAMYYCARRKYSYTYDYFDYWGQGTLVTVSS
VL: QTVVTQEPSFSVSPGGTVTLTCGLSSGSVSTAYYPSWYQQTPGQAPRTLIYSTNTRSSGVPDRFSGSILGNKAALTITGAQADDESDYYCVLYMGSGISYVFGTGTKVTVL
notes: Fab expressed in E. coli; Plasmid A adds CH1 with His6 and Flag tags to the heavy chain; Plasmid E adds lambda CL to the light chain; also called G100K/G104T & S32A

ECL signal (Recombinant Human DLL4 [2]): 4260
Signal/Noise (Recombinant Human DLL4 [2]): 29.2
ECL signal (Recombinant Human DLL4 [3]): 8710
Signal/Noise (Recombinant Human DLL4 [3]): 23
B8: Fab VH1-46_IGHD6-6*01_IGHJ1*01 & L6_IGKJ1*01 (Fab, V domains shown)
VH: QVQLVQSGAEVKKPGASVKVSCKASGYTFTSYYMHWVRQAPGQGLEWMGIINPSGGSTSYAQKFQGRVTMTRDTSTSTVYMELSSLRSEDTAVYYCAREEYSSSSAEYFQHWGQGTLVTVSS
VL: not shown
notes: Tested as a Fab made in E. coli; VH was cloned into Plasmid A (CH1 constant region, His6 and Flag tags) and the kappa VL into Plasmid C (kappa CL); also called parent "Hit" Fab; parental

ECL signal (Recombinant Human DLL4 [4]): 123000
ELISA signal (Recombinant Human DLL4 [5]): 0.641
B9: Fab VH1-46_IGHD6-6*01_IGHJ1*01 S102A/S103P/S104F/H111F/I51T/N52L/S54T/G56H & L6_IGKJ1*01 (Fab, V domains shown)
VH: QVQLVQSGAEVKKPGASVKVSCKASGYTFTSYYMHWVRQAPGQGLEWMGITLPTGHSTSYAQKFQGRVTMTRDTSTSTVYMELSSLRSEDTAVYYCAREEYAPFSAEYFQFWGQGTLVTVSS
VL: not shown
notes: Tested as Fab expressed in E. coli: VH cloned into plasmid A (CH1 constant region, His6 and Flag tags), kappa VL cloned into plasmid C (kappa CL); also called APFF TLTH; H:APFF TLTH

ECL signal (Recombinant Human DLL4 [4]): 63200
ELISA signal (Recombinant Human DLL4 [5]): 0.07
B10: Fab VH1-46_IGHD6-6*01_IGHJ1*01 S102A/S103P/S104F/H111F/I51T/N52L/P53R/S54T/G56H & L6_IGKJ1*01 (Fab, V domains shown)
VH: QVQLVQSGAEVKKPGASVKVSCKASGYTFTSYYMHWVRQAPGQGLEWMGITLRTGHSTSYAQKFQGRVTMTRDTSTSTVYMELSSLRSEDTAVYYCAREEYAPFSAEYFQFWGQGTLVTVSS
VL: not shown
notes: Tested as Fab expressed in E. coli (CH1 with His6/Flag tags from plasmid A; kappa CL from plasmid C); also called APFF TLRTH

ECL signal (Recombinant Human DLL4 [2]): 5150
Signal/Noise (Recombinant Human DLL4 [2]): 35.3
ECL signal (Recombinant Human DLL4 [3]): 11600
Signal/Noise (Recombinant Human DLL4 [3]): 30.5
B11: Fab VH1-46_IGHD6-6*01_IGHJ1*01 S103A & L6_IGKJ1*01 (Fab, V domains shown)
VH: QVQLVQSGAEVKKPGASVKVSCKASGYTFTSYYMHWVRQAPGQGLEWMGIINPSGGSTSYAQKFQGRVTMTRDTSTSTVYMELSSLRSEDTAVYYCAREEYSASSAEYFQHWGQGTLVTVSS
VL: not shown
notes: Heavy chain CDR3 alanine mutant of the parent Fab; Fab format with CH1, kappa CL, His6 and Flag tags from the expression plasmids

ECL signal (Recombinant Human DLL4 [4]): 108000
ELISA signal (Recombinant Human DLL4 [5]): 0.287
B12: Fab VH1-46_IGHD6-6*01_IGHJ1*01 S102A/S103P/S104F/H111F/I51T/N52L/P53H/S54T/G56H & L6_IGKJ1*01 (Fab, V domains shown)
VH: QVQLVQSGAEVKKPGASVKVSCKASGYTFTSYYMHWVRQAPGQGLEWMGITLHTGHSTSYAQKFQGRVTMTRDTSTSTVYMELSSLRSEDTAVYYCAREEYAPFSAEYFQFWGQGTLVTVSS
VL: not shown
notes: Tested as Fab expressed in E. coli (CH1 with His6/Flag tags from plasmid A; kappa CL from plasmid C); also called APFF TLHTH
